Legend:
[1] = biological target: T1, HER2 full-length extracellular domain (ECD), recombinant (human, UniProt P04626 23-652); assay: ELISA, coated HER2 ECD, antibody at 10 µg/ml
T1 construct: extracellular domain; also called full length ECD; HER2 full-length ECD
Description: (§1) Recombinant Her2 domains (full length ECD purchased from Biozol, ECD domains produced at Mab Discovery), were coated on a 384-well Nunc™ MaxiSorp™ plate at optimized concentrations ([…]) in PBS for one hour at room temperature. After washing three times with wash buffer (PBS, 0.1% Tween), plates were blocked with PBS, 2% BSA, 0.05% Tween for one hour at room temperature. Plates were washed again three time with wash buffer and antibodies at a concentration of 10 μg/ml in PBS, 0.5% BSA, 0.05% Tween were incubated for one hour at room temperature. After 3 washes in wash buffer, wells were incubated with 12.5 μl of a 1:5000 dilution of anti-human peroxidase-linked, species specific F(ab)2 Fragment from goat (AbD Serotec) in ELISA buffer for one hour at room temperature. Wells were washed six times with wash buffer and 15 μl/well TMB substrate solution (Invitrogen) were added. After 10 minutes at room temperature 15 μl Stop solution (1M HCl) were added per well and absorbance at 450 and 620 nm wavelength was measured using a Tecan M1000 microplate reader.

[2] = biological target: T2, HER2 sub-domain I, recombinant (human, UniProt P04626 23-217, limits assumed); assay: ELISA, coated HER2 domain
T2 construct: domain: sub-domain I; also called HER2 domain I
Description: as §1

binding result [1]: binds
binding result [2]: no binding (tested: 10 µg/ml)
B1: B100 anti-HER2 monoclonal antibody (antibody, V domains shown)
VH: QSVEESGGRLVTPGTPLTLTCTVSGFSLSNYGVSWVRQAPGKGLEYIGIISGSGFTYYASWAKGRFTISKTSTTVDLKITSPTTKDTATYFCARGVVPGYNAGGLWGQGTLVTVSS
VL: DIVMTQTPASVSEPVGGTVTIKCQASQGISTALAWYQQKPGQRPKLLIYSASTLASGVSSRFKGSGSGTQFTLTISDLECADAATYYCQCTAAGSVSVGAFGGGTEVVVN
notes: It was detected in the ELISA with an anti-human F(ab)2 conjugate; also called B100 antibody

From patent US20220204644A1 (MAB DISCOVERY, published 2022)
